Test results: patent US20090018070A1 (LABORATOIRES SERONO, published 2009)

T1: human FSH receptor (human, UniProt P23945 18-695)
T1 sequence (looked up): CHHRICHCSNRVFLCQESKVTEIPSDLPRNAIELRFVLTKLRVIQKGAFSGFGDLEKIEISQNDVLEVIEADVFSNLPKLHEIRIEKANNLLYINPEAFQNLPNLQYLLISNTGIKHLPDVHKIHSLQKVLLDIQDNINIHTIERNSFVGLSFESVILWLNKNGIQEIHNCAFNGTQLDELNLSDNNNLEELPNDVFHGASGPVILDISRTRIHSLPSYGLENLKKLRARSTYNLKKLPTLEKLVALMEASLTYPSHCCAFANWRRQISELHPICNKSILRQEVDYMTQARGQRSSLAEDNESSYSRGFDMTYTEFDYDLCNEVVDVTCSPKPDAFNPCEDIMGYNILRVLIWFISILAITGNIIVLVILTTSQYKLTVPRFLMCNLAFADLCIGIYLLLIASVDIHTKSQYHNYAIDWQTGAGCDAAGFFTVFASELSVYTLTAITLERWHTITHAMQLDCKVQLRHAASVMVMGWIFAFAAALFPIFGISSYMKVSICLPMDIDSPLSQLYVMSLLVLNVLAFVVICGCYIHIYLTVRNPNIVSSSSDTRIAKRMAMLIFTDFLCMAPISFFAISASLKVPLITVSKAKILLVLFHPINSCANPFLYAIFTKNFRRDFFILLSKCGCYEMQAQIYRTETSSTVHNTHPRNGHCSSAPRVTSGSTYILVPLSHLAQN


Target: T1, human FSH receptor
Experiment: cell-based or functional assay

| Binder | EC50 of cAMP production in CHO-FSHR cells [nM] |
| --- | --- |
| GNRT mutant FSH (Clone 10C, alpha GNRT / beta GM1) (ligand) chain 1: not shown chain 2: NSCELTNITIAIEKEECRFCISINTTWCAGYCYTRDLVYKDPARPKIQKTCTFKNLTYETVRVPGCAHHADSLYTYPVATQCHCGKCDSDSTDCTVRGLGPSYCSFGEMKE | 0.258 |
| GNFT mutant FSH (Clone 11C, alpha GNFT / beta GM1) (ligand) chain 1: not shown chain 2: NSCELTNITIAIEKEECRFCISINTTWCAGYCYTRDLVYKDPARPKIQKTCTFKNLTYETVRVPGCAHHADSLYTYPVATQCHCGKCDSDSTDCTVRGLGPSYCSFGEMKE | 0.278 |
